Measured values from patent US20220241202A1, “METHOD AND VEHICLE FOR DELIVERING AGENTS ACROSS THE BLOOD-BRAIN BARRIER” (priority 2019, published 2022).

B1: CSPα: cysteine string protein alpha, DnaJ domain-containing protein chaperone, myc-tagged, expressed in CAD cells (protein, UniProt Q9H3Z4 1-198, looked up)
DnaJ homolog subfamily C …: MADQRQRSLSTSGESLYHVLGLDKNATSDDIKKSYRKLALKYHPDKNPDNPEAADKFKEINNAHAILTDATKRNIYDKYGSLGLYVAEQFGEENVNTYFVLSSWWAKALFVFCGLLTCCYCCCCLCCCFNCCCGKCKPKAPEGEETEFYVSPEDLEAQLQSDEREATDTPIVIQPASATETTQLTADSHPSYHTDGFN
modifications: myc tag
notes: cysteine string protein alpha, DnaJ domain-containing protein chaperone, myc-tagged, expressed in CAD cells

What was measured:
Format in all cases: cell-based
CAD cells [1] = assay: EV secretion of GFP-tagged 72Q huntingtin^exon1 from CAD cells with or without β amyloid peptide; conditions: 12.5 μg/ml β amyloid peptide, added 6 hours after transfection, media collected at 48 hours
Procedure: CAD cells were transiently transfected with GFP-tagged 72Q huntingtin^exon1 and a vector control, CSPα, DnaJB2long, or DnaJB6long. 6 hours after transfection, the cells were treated with 12.5 μg/ml β amyloid peptide (Aβ) or left untreated. 48 hours after transfection, the media was collected, EVs were prepared, and EV secretion of GFP-tagged 72Q huntingtin^exon1 was measured.

CAD cells [2] = assay: Cell viability after media collection (XTT assay); conditions: various levels of CSPα expression
Procedure: (§1) Cell lines were transfected with the molecular chaperone CSPα and a GFP-tagged protein. CAD cells (catecholaminergic derived CNS cells) were the cell line utilized. Other cell lines, including patient-derived cell lines, may also be utilized. cDNAs encoding for myc-tagged CSPα or vector alone and GFP-72Q huntingtin^exon1 were transiently transfected with Lipofectamine™ 3000 (Invitrogen) in Opti-MEM™ medium. Media was changed to serum-free media 6 hours post-transfection. Media was collected 48 hours after transfection, spun at 300×g for 5 min to remove cell debris and evaluated without further processing by nanocyte tracking analysis, nanoscale flow cytometry analysis and dot blot analysis. For western blot analysis, EVs were isolated from the unfractionated media by exoquick precipitation solution (SBI) and solubilized in sample buffer. Following media collection, cell viability was determined using an XTT assay (New England Biolabs). When resveratrol was used, it was added to the serum-free media 6 hours post-transfection at the time of the media change.

CAD cells [3] = assay: Nanoscale flow cytometry of EVs secreted from CAD cells expressing GFP-72Q huntingtin^exon1
Procedure: as §1
For NTA and nanoscale flow cytometry analysis, all samples were diluted 25 fold using 0.2× phosphate buffered saline that had been filtered twice through 0.2 μm filter. For NTA analysis, all samples were analyzed using the Nanosight LM10 (405 nm laser, 60 mW, software version 3.00064). Samples were analyzed in triplicate for 60 seconds per replicate with a count range of 20-100 particles per frame. A variety of NIST (Thermo Scientific 3000 Series) standards were analyzed, each the day prior to sample analysis. The system was cleaned between each sample and checked for any sample carryover using the PBS diluent. NTA measures EVs within a size range from about 30 nm to about 1,000 nm.
Samples were similarly prepared for nanoscale flow cytometry as for NTA. All samples were analyzed using the Apogee A50 flow cytometry platform. Light scatter was provided using the 405 nm laser (75 mW); GFP signal was generated using the 488 nm laser (50 mW, 535/35) and far red signal was generated using the 630 nm laser (75 mW, 680/35). All samples were analyzed for 60 seconds. Optimization was performed to insure single EVs were being analyzed and single events were triggered by light scatter only. The system was cleaned each day prior to sample analysis and a variety of silica and polystyrene standards (Apogee 1493 standards) processed for instrument set up and QC. The silica standards were used to assess the relative size range of EVs. Nanoscale flow cytometry measures EVs within a size range from about 100 nm to about 1,300 nm. […]

[4] = cells express the protein, p<0.0001
[5] = presence of CSPα, no resveratrol

Row | Molecule | secretion of GFP-tagged 72Q huntingtin^exon1 by CSPα, DnaJB2long and DnaJB6long (CAD cells [1]) | Cell viability after media collection (CAD cells [2]) | Secretion of EVs containing GFP-tagged 72Q huntingtin^exon1 (CAD cells [3]; [4]) | percentage of EVs containing GFP-72Q huntingtin^exon1 within the total EV pool (CAD cells [3]; [4]) | increase of export of EVs containing GFP-72Q huntingtin^exon1 within the 180-240 nm subpopulation (CAD cells [3]; p<0.0001) [%] | EVs containing GFP cargo within the 180-240 nm subpopulation (CAD cells [3]; [5]) [%] | EVs containing GFP cargo within the <180 nm subpopulation (CAD cells [3]; [5]) [%] | EVs containing GFP cargo within the >240 nm subpopulation (CAD cells [3]; [5]) [%] | 180-240 nm EV export of GFP-72Q huntingtin^exon1 as a function of cellular CSPα expression (CAD cells [3]; various levels of CSPα, parallel western blot)
1 | β amyloid peptide: β amyloid peptide (Aβ, AggreSure™ obtained from AnaSpec) | increased the secretion of GFP-tagged 72Q huntingtin^exon1 |  |  |  |  |  |  |  | 
2 | B1 |  | not influenced | dramatically increased | dramatically increased | > 400 | 1 | 0.06 | 1.6 | correlates with increases in 180-240 nm EV export
